Measured values: patent US20190010233A1

What was measured:
[1] = molecular target: cyno PD-L1^ECD-hFc protein (cyno) (UniProt G7PSE7); assay: ELISA, 1 nM mAb
[2] = molecular target: human PD-L1^ECD-hFc protein (human) (UniProt Q9NZQ7); assay: ELISA, 1 nM mAb
[3] = molecular target: human PD-L1^ECD-hFc protein (human) (UniProt Q9NZQ7); assay: ELISA, 3 nM mAb
[4] = molecular target: human PD-L1^ECD-hFc protein (human) (UniProt Q9NZQ7); assay: ELISA, 30 nM mAb
[5] = molecular target: cyno PD-L1^ECD-hFc protein (cyno) (UniProt G7PSE7); assay: ELISA, 30 nM mAb
[6] = molecular target: cyno PD-L1^ECD-hFc protein (cyno) (UniProt G7PSE7); assay: ELISA, 0.3 nM mAb
[7] = molecular target: human PD-L1^ECD-hFc protein (human) (UniProt Q9NZQ7); assay: ELISA, 0.3 nM mAb
[8] = molecular target: cyno PD-L1^ECD-hFc protein (cyno) (UniProt G7PSE7); assay: ELISA, 100 nM mAb
[9] = molecular target: human PD-L1^ECD-hFc protein (human) (UniProt Q9NZQ7); assay: ELISA, 100 nM mAb
[10] = molecular target: cyno PD-L1^ECD-hFc protein (cyno) (UniProt G7PSE7); assay: ELISA, 0.03 nM mAb
[11] = molecular target: human PD-L1^ECD-hFc protein (human) (UniProt Q9NZQ7); assay: ELISA, 0.03 nM mAb
[12] = molecular target: cyno PD-L1^ECD-hFc protein (cyno) (UniProt G7PSE7); assay: ELISA, 1.111 nM mAb
[13] = molecular target: human PD-L1^ECD-hFc protein (human) (UniProt Q9NZQ7); assay: ELISA, 1.111 nM mAb
[14] = molecular target: cyno PD-L1^ECD-hFc protein (cyno) (UniProt G7PSE7); assay: ELISA, 0.001 nM mAb
[15] = molecular target: human PD-L1^ECD-hFc protein (human) (UniProt Q9NZQ7); assay: ELISA, 0.001 nM mAb
[16] = molecular target: cyno PD-L1^ECD-hFc protein (cyno) (UniProt G7PSE7); assay: ELISA, 0.003 nM mAb
[17] = molecular target: human PD-L1^ECD-hFc protein (human) (UniProt Q9NZQ7); assay: ELISA, 0.003 nM mAb
[18] = molecular target: cyno PD-L1^ECD-hFc protein (cyno) (UniProt G7PSE7); assay: ELISA, 0.0003 nM mAb
[19] = molecular target: human PD-L1^ECD-hFc protein (human) (UniProt Q9NZQ7); assay: ELISA, 0.0003 nM mAb
[20] = molecular target: full length human PD-L1 on cells (human) (UniProt Q9NZQ7); assay: FACS CHO-K1-hPD-L1, 1 nM mAb
Chain of full length human PD-L1 on cells (human) (Q9NZQ7 19-290 limits assumed): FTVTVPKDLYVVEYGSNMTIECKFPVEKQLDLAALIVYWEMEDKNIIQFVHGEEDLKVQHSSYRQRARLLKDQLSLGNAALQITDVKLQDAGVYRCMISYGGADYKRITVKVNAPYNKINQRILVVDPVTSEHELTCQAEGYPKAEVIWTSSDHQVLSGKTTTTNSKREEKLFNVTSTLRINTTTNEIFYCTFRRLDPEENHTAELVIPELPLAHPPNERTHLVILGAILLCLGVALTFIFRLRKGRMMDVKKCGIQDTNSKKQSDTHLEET

[21] = molecular target: full length cyno PD-L1 on cells (cyno) (UniProt G7PSE7); assay: FACS CHO-K1-cPD-L1, 3 nM mAb
Chain of full length cyno PD-L1 on cells (cyno) (G7PSE7 entry or part of it limits assumed): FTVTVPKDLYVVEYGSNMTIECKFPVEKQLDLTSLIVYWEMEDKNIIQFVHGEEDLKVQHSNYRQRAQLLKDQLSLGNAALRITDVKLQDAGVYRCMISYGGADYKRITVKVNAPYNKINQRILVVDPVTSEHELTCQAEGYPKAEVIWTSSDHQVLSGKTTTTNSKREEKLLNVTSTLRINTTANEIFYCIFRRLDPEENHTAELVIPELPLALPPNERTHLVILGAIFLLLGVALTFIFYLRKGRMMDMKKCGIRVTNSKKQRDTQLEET

[22] = molecular target: full length human PD-L1 on cells (human) (UniProt Q9NZQ7); assay: FACS CHO-K1-hPD-L1, 10 nM mAb
[23] = molecular target: full length human PD-L1 on cells (human) (UniProt Q9NZQ7); assay: FACS CHOK1-hPD-L1, 0.3 nM mAb
[24] = molecular target: full length human PD-L1 on cells (human) (UniProt Q9NZQ7); assay: FACS CHOK1-hPD-L1, 300 nM mAb
[25] = molecular target: full length cyno PD-L1 on cells (cyno) (UniProt G7PSE7); assay: FACS CHO-K1-cPD-L1, 30 nM mAb
[26] = molecular target: full length cyno PD-L1 on cells (cyno) (UniProt G7PSE7); assay: FACS CHO-K1-cPD-L1, 0.1 nM mAb
[27] = molecular target: full length cyno PD-L1 on cells (cyno) (UniProt G7PSE7); assay: FACS CHO-K1-cPD-L1, 0.3 nM mAb
[28] = molecular target: full length cyno PD-L1 on cells (cyno) (UniProt G7PSE7); assay: FACS CHO-K1-cPD-L1, 0.01 nM mAb
[29] = molecular target: full length cyno PD-L1 on cells (cyno) (UniProt G7PSE7); assay: FACS CHO-K1-cPD-L1, 0.14 nM mAb
[30] = molecular target: full length human PD-L1 on cells (human) (UniProt Q9NZQ7); assay: FACS CHOK1-hPD-L1, 0.003 nM mAb
[31] = molecular target: full length cyno PD-L1 on cells (cyno) (UniProt G7PSE7); assay: FACS CHO-K1-cPD-L1, 33.33 nM mAb
[32] = molecular target: full length human PD-L1 on cells (human) (UniProt Q9NZQ7); assay: FACS CHOK1-hPD-L1, 0.0003 nM mAb
[33] = molecular target: full length cyno PD-L1 on cells (cyno) (UniProt G7PSE7); assay: FACS CHO-K1-cPD-L1, 0.003 nM mAb
[34] = molecular target: hPD-L2 (human) (UniProt Q9BQ51); assay: ELISA, mAb concentration not given
Chain of hPD-L2 (human) (Q9BQ51 20-219 limits assumed): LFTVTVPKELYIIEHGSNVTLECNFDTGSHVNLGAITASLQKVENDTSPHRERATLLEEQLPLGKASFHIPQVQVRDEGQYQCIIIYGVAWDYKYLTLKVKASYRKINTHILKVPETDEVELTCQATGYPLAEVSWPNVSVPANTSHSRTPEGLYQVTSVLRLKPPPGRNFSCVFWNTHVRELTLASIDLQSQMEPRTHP

[35] = molecular target: human PD-L1^ECD-hFc protein (human) (UniProt Q9NZQ7); assay: ELISA, mAb concentration not given

Chain of human PD-L1^ECD-hFc protein (human) (Q9NZQ7 19-239): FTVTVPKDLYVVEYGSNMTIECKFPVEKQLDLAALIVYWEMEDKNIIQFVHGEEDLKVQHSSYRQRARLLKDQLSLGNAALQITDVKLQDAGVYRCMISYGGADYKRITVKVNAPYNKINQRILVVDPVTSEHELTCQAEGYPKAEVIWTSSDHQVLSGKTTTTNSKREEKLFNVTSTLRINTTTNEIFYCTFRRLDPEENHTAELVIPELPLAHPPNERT
Chain of cyno PD-L1^ECD-hFc protein (cyno) (G7PSE7 entry or part of it limits assumed): as the sequence (Q9NZQ7 19-239) above, with A33T, A34S, S62N, R68Q, Q82R, F173L, T185A, T192I, H215L counted along it

IgG control (human IgG) (antibody) was tested, and the OD450 nm [1] was 0.0989, the OD450 nm [2] was 0.157 and the OD450 nm [3] was 0.277. It also gave an OD450 nm [4] of 0.12, an OD450 nm [5] of 0.306 and an OD450 nm [6] of 0.28. The OD450 nm [7] was 0.293, the OD450 nm [8] was 0.398 and the OD450 nm [9] was 0.767. It also gave an OD450 nm [10] of 0.276, an OD450 nm [11] of 0.273 and an OD450 nm [12] of 0.16. For the same substance, the OD450 nm [13] was 0.16, the OD450 nm [14] was 0.0972 and the OD450 nm [15] was 0.149. It also gave an OD450 nm [16] of 0.302, an OD450 nm [17] of 0.298 and an OD450 nm [18] of 0.273. It also gave an OD450 nm [19] of 0.338, a Mean fluorescence intensity [20] of 2.51 and a Mean fluorescence intensity [21] of 3.91. The Mean fluorescence intensity [22] was 2.73, the Mean fluorescence intensity [23] was 3.16 and the Mean fluorescence intensity [24] was 4.86. It also gave a Mean fluorescence intensity [25] of 4.12, a Mean fluorescence intensity [26] of 2.2 and a Mean fluorescence intensity [27] of 3.73. For the same substance, the Mean fluorescence intensity [28] was 1.87, the Mean fluorescence intensity [29] was 2.74 and the Mean fluorescence intensity [30] was 3.03. The Mean fluorescence intensity [31] was 2.94, the Mean fluorescence intensity [32] was 2.79 and the Mean fluorescence intensity [33] was 3.62. The OD450 nm [34] was 0.189 and the OD450 nm [35] was 0.206.
